Source: PMC8345934, “Biochemical Studies of Mitochondrial Malate: Quinone Oxidoreductase from Toxoplasma gondii” (International Journal of Molecular Sciences, 2021)

T1: malate:quinone oxidoreductase (TgMQO) (Toxoplasma gondii, UniProt Q1KSF3)
T1 construct: gene mqo; lacking the mitochondrial targeting signal (Δ1-37 residues), His-tag purified
T1 sequence (Q1KSF3 38-549): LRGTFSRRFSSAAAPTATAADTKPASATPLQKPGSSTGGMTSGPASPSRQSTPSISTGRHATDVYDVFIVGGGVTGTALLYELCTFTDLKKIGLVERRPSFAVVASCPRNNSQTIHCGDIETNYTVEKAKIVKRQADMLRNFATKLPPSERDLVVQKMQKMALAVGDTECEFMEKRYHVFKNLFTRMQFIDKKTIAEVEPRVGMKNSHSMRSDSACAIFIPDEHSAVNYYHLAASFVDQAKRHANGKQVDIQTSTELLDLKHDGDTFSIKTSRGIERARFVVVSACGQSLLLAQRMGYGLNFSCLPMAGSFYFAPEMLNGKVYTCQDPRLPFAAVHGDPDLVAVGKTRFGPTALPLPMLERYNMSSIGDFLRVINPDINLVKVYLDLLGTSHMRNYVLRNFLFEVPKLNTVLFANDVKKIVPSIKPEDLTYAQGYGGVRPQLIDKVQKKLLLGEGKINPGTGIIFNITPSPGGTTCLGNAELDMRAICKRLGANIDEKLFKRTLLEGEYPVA

B1: malate:quinone oxidoreductase (TgMQO) (Toxoplasma gondii) (protein)
chain: T1 sequence (Q1KSF3 38-549)

Key:
[1] = molecular target: T1, malate:quinone oxidoreductase (TgMQO); assay: spectrophotometric dUQ reduction at […] nm, purified recombinant enzyme; assay type: biochemical
[2] = substrate: COC1=C(OC)C(=O)C(CC=C(C)C)=C(C)C1=O; assay: purified protein; conditions: FAD ubiquinone binding site
[3] = substrate: O=C(O)C[C@H](O)C(=O)O; assay: purified protein; conditions: FAD malate binding site
[4] = substrate: COC1=C(OC)C(=O)C(C/C=C(\C)CCC=C(C)C)=C(C)C1=O; assay: purified protein; conditions: FAD ubiquinone binding site
[5] = substrate: COC1=C(OC)C(=O)C(C)=CC1=O; assay: purified protein; conditions: FAD ubiquinone binding site
[6] = substrate: CCCCCCCCCCC1=C(C)C(=O)C(OC)=C(OC)C1=O; assay: purified protein; conditions: FAD ubiquinone binding site
[7] = substrate: COC1=C(OC)C(=O)C(C/C=C(\C)CC/C=C(\C)CC/C=C(\C)CC/C=C(\C)CC/C=C(\C)CCC=C(C)C)=C(C)C1=O; assay: purified protein; conditions: FAD ubiquinone binding site
[8] = substrate: COC1=C(OC)C(=O)C(C/C=C(\C)CC/C=C(\C)CC/C=C(\C)CCC=C(C)C)=C(C)C1=O; assay: purified protein; conditions: FAD ubiquinone binding site

Molecule	IC50 [1] [nM]	Km [2] [µM]	Vmax [2] [µmol/min/mg]	Km [3] [µM]	Vmax [3] [µmol/min/mg]	Km [4] [µM]	Vmax [4] [µmol/min/mg]	Km [5] [µM]	Vmax [5] [µmol/min/mg]	Km [6] [µM]	Vmax [6] [µmol/min/mg]	Km [7] [µM]	Vmax [7] [µmol/min/mg]	Km [8] [µM]	Vmax [8] [µmol/min/mg]
CC(C)=CCC/C(C)=C/CC/C(C)=C/Cc1c(O)c2ccccc2oc1=O [Ferulenol]	822 ± 151	–	–	–	–	–	–	–	–	–	–	–	–	–	–
B1	–	116 ± 16	44.2	370 ± 140	6.3	13.2	45.1	225 ± 77	12.7	17 ± 4.7	12.1	8.0 ± 3.3	3.64	7.7 ± 4.3	4.39
